# Assay results: the PETadex activity labels (doi:10.1038/s41467-023-40233-w)
# Substrate: pcPET (post-consumer)
# Experiment: Proxy for plastic degradation [Released monomer concentration (HPLC/LC-MS) (TPA+MHET+BHET)]
# Conditions: pH 9; 40 °C; 24 h
row,Protein,Proxy for plastic degradation [µM]
1,unnamed (protein) MLSFLRSTGRPERRRASLPALLLFTAALVASGLTAAPAAQAADNPYQRGPDPTNASIEAATGPFAVGTQPIVGASGFGGGQIYYPTDTSQTYGAVVIVPGFISVWAQLNWLGPRLASQGFVVIGIETSTITDLPDPRGDQALAALDWATTRSPVASRIDRTRLAAAGWSMGGGGLRRAALQRPSLKAIVGMAPWNGERNWSAVTVPTLFFGGSSDAVASPNDHAKPFYNSITRAEKDYIELRNADHFFPTSANTTMAKYFISWLKRWVDNDTRYTQFLCPGPSTGLFAPVSASMNTCPF,990
2,unnamed (protein) MLSFLRSTGRPERRRASLPALLLFTAALVASGLTAAPAAQAADNPYQRGPDPTNASIEAATGPFAVGTQPIVGASGFGGGQIYYPTDTSQTYGAVVIVPGFISVWAQLNWLGPRLASQGFVVIGIETSVITDLPDPRGDQALAALDWATTRSPVASRIDRTRLAAAGWSMGGGGLRRAALQRPSLKAIVGMAPWNTERNWSAVTVPTLFFGGSSDAVASPNDHAKPFYNSITRAEKDYIELRNADHFFPTSANTTMAKYFISWLKRWVDNDTRYTQFLCPGPSTGLFAPVSASMNTCPF,840
3,unnamed (protein) MLSFLRSTGRPERRRASLPALLLFTAALVASGLTAAPAAQAADNPYQRGPDPTNASIEAATGPFAVGTQPIVGASGFGGGQIYYPTDTSQTYGAVVIVPGFISVWAQLAWLGPRLASQGFVVIGIETSTITDLPDPRGDQALAALDWATTRSPVRSRIDRTRLAAAGWSMGGGGLRRAACQRPSLKAIVGMAPWNTEKNWSCVTVPTLFFGGSSDAVASPNDHAKPFYNSITRAEKDYIELCNADHFFPTSANTTMAKYFISWLKRWVDNDTRYTQFLCPGPSTGLFAPVCASMNTCPF,1370
4,unnamed (protein) MLSFLRSTGRPERRRASLPALLLFTAALVASGLTAAPAAQAADNPYQRGPDPTNASIEAATGPFAVGTQPIVGASGFGGGQIYYPTDTSQTYGAVVIVPGFISVWAQLNWLGPRLASQGFVVIGIETSVITDLPDPRGDQALAALDWATTRSPVASRIDRTRLAAAGWSMGGGGLRRAALQRPSLKAIVGMAPWNGERNWSAVTVPTLFFGGSSDAVASPNDHAKPFYNSITRAEKDYIELRNADHFFPTSANTTMSKYFISWLKRWVDNDTRYTQFLCPGPSTGLFAPVSASMNTCPF,530
5,unnamed (protein) MLSFLRSTGRPERRRASLPALLLFTAALVASGLTAAPAAQAADNPYQRGPDPTNASIEAATGPFAVGTQPIVGASGFGGGQIYYPTDTSQTYGAVVIVPGFISVWAQLNWLGPRLASQGFVVIGIETSVITDLPDPRGDQALAALDWATTASPVASRIDRTRLAAAGWSMGGGGLRRAALQRPSLKAIVGMAPWNGERNWSAVTVPTLFFGGSSDAVASPNDHAKPFYNSITRAEKDYIELRNADHFFPTSANTTMAKYFISWLKRWVDNDTRYTQFLCPGPSTGLFAPVSASMNTCPF,600
6,unnamed (protein) MLSFLRSTGRPERRRASLPALLLFTAALVASGLTAAPAAQAADNPYQRGPDPTNASIEAATGPFAVGTQPIVGASGFGGGQIYYPTDTSQTYGAVVIVPGFISVWAQLNWLGPRLASQGFVVIGIETSVITDLPDPRGDQALAALDWATTRSPVASRIDRTRLAAAGWSMGGGGLRRAACQRPSLKAIVGMAPWNGERNWSCVTVPTLFFGGSSDAVASPNDHAKPFYNSITRAEKDYIELRNADHFFPTSANTTMAKYFISWLKRWVDNDTRYTQFLCPGPSTGLFAPVSASMNTCPF,850
7,unnamed (protein) MLSFLRSTGRPERRRASLPALLLFTAALVASGLTAAPAAQAADNPYQRGPDPTNASIEAATGPFAVGTQPIVGASGFGGGQIYYPTDTSQTYGAVVIVPGFISVWAQLNWLGPRLASQGFVVIGIETSVITDLPDPRGDQALAALDWATTRSPVASRIDRTRLAAAGHSMGGGGLRRAALQRPSLKAIVGMAPWNGERNWSAVTVPTLFFGGSSDAVASPNDHAKPFYNSITRAEKDYIELRNADHFFPTSANTTMAKYFISWLKRWVDNDTRYTQFLCPGPSTGLFAPVSASMNTCPF,220
8,unnamed (protein) MLSFLRSTGRPERRRASLPALLLFTAALVASGLTAAPAAQAADNPYQRGPDPTNASIEAATGPFAVGTQPIVGASGFGGGQIYYPTDTSQTYGAVVIVPGFISVWAQLNWLGPRLASQGFVVIGIETSVITDLPDPRGDQALAALDWATTRSPVASRIDRTRLAAAGWSMGGGGLRRAALQRPSLKAIVGMAPWNGERNWSATTVPTLFFGGSSDAVASPNDHAKPFYNSITRAEKDYIELRNADHFFPTSANTTMAKYFISWLKRWVDNDTRYTQFLCPGPSTGLFAPVSASMNTCPF,170

# Same assay, conditions: pH 9; 60 °C; 6 h
row,Protein,Proxy for plastic degradation [µM]
1,unnamed (protein) MLSFLRSTGRPERRRASLPALLLFTAALVASGLTAAPAAQAADNPYQRGPDPTNASIEAATGPFAVGTQPIVGASGFGGGQIYYPTDTSQTYGAVVIVPGFISVWAQLAWLGPRLASQGFVVIGIETSTITDLPDPRGDQALAALDWATTRSPVRSRIDRTRLAAAGWSMGGGGLRRAACQRPSLKAIVGMAPWNTEKNWSCVTVPTLFFGGSSDAVASPNDHAKPFYNSITRAEKDYIELCNADHFFPTSANTTMAKYFISWLKRWVDNDTRYTQFLCPGPSTGLFAPVCASMNTCPF,1860
